Measured values reported in patent US6673357B2, “Alkaloid glycoside for use as a medicament” (University of Southampton, priority 1996, dated 2004).

Tested on: ovalbumin-transfected EL4 (C57BL/6, H-2b thymoma) monoclonal murine cell line
Assay: Cytotoxicity assay: T lymphocyte-mediated 51Cr release with spleen cells from immunised mice
Format: cell-based
Details: means of triplicate determinations
Method: Cytotoxic activity mediated by T lymphocytes was measured using the ovalbumin-transfected EL4 (C57BL/6, H-2b thymoma) monoclonal murine cell line as a target. Untransfected EL4 cells were used as negative controls. Spleen cells (3×10^7) from normal or immunised mice primed 14 days earlier were incubated with 1.5×10^6 irradiated (200 Gy) 15-12 cells (gp160 transfectants) or 3T3 cells (which served as controls) for 5 days. Target cells (1×10^6) were labelled with 100 μCi ^51Cr. Target cells were washed three times in RPMI 1640 medium, diluted to 2×10^5 cells/ml, and 50μ (10^4) of target cells added to each microtitre well containing antigen or peptide (10 μM) and preincubated for 30 min. Effector cells were resuspended in complete mdium (CM) to yield a range of effector: target (E:T) ratios. Target cells (10^4) were then incubated at different E:T ratios in a total volume of 200 μl of 10% CM for an additional 4 h. Supernatants (100 μl) were collected and counted for ^51Cr release. Spontaneous release and maximal release values were determined by incubating target cells in 10% CM alone or 0.1% Triton X-100. Percent Cytotoxicity was calculated using the formula: […]
where ER is experimental release, SR is spontaneous release and […] release. The results shown are shown in Table 4 and represent the means of triplicate determinations.

B1: antigen only: antigen (ovalbumin, OVA) given without adjuvants (protein, UniProt P01012 2-386, looked up)
Ovalbumin: GSIGAASMEFCFDVFKELKVHHANENIFYCPIAIMSALAMVYLGAKDSTRTQINKVVRFDKLPGFGDSIEAQCGTSVNVHSSLRDILNQITKPNDVYSFSLASRLYAEERYPILPEYLQCVKELYRGGLEPINFQTAADQARELINSWVESQTNGIIRNVLQPSSVDSQTAMVLVNAIVFKGLWEKAFKDEDTQAMPFRVTEQESKPVQMMYQIGLFRVASMASEKMKILELPFASGTMSMLVLLPDEVSGLEQLESIINFEKLTEWTSSNVMEERKIKVYLPRMKMEEKYNLTSVLMAMGITDVFSSSANLSGISSAESLKISQAVHAAHAEINEAGREVVGSAEAGVDAASVSEEFRADHPFLFCIKHIATNAVLFFGRCVSP
For B1, the “% of Cytotoxic lysis” value (E:T ratio 25:1) was 19%, the “% of Cytotoxic lysis” value (E:T ratio 50:1) was 30% and the “% of Cytotoxic lysis” value (E:T ratio 100:1) was 45%.
